The values that follow are results of earlier work, collected in paper PMC2854253.

What is called Kd is a measure of binding affinity in units of concentration.

For this data set, the target named is cTnI147-163 (Homo sapiens). As to the kind of experiment: NMR titration.

For the substance cNTnC 1-89 (from UniProt P63316), the Kd is 154 µM.
